Assay: soluble on expression in E. coli; label from the status in PepcDB or PDB records
For “MSKTHLTEQKFSDFALHPKVVEALEKKGFHNCTPIQALALPLTLAGRDVAGQAQTGTGKTMAFLTSTFHYLLSHPAIADRKVNQPRALIMAPTRELAVQIHADAEPLAEATGLKLGLAYGGDGYDKQLKVLESGVDILIGTTGRLIDYAKQNHINLGAIQVVVLDEADRMYDLGFIKDIRWLFRRMPPANQRLNMLFSATLSYRVRELAFEQMNNAEYIEVEPEQKTGHRIKEELFYPSNEEKMRLLQTLIEEEWPDRAIIFANTKHRCEEIWGHLAADGHRVGLLTGDVAQKKRLRILDEFTRGDLDILVATDVAARGLHIPAVTHVFNYDLPDDCEDYVHRIGRTGRAGASGHSISLACEEYALNLPAIETYIGHSIPVSKYNPDALMTDLPKPLRLTRPRTGNGPRRTGAPRNRRRSG”, the “soluble on expression in E. coli” value was “soluble”. For “MSLAAEGKAIAKVNDLVIFVPYVVPGDVVDLQIKRKKNKYAEAEAVKFHELSPVRAVPFCQHYGVCGGCKWQVLPYSEQIRYKQKQVEDNLRRIGKIELPEISPILGSAKTEFYRNKLEFTFSNKRWLTNDEVRQDVKYDQMNAVGFHIPGAFDKVLAIEKCWLQDDISNRIRNAVRDYAYEHDYSFINLRTQEGMLRNLIIRTSSTGELMVIVICKITEDHEMELFKQLLQFIADSFPEITSLLYIINNKCNDTINDLDVHVFKGKDHMFEEMEGLRFKVGPKSFYQTNSEQAYNLYKIAREFAGLTGKELVYDLYTGTGTIANFVSRQARQVIGIEYVPEAIEDAKVNAEINEIKNALFYAGDMKDMLTQEFINQHGRPDVIITDPPRAGMHQDVVDVILFAEPKRIVYVSCNPATQARDLQLLDGKYKVKAVQPVDMFPHTHHVENVVLLELREGHHHHHH”, the “soluble on expression in E. coli” value was “soluble”. With “MSLAAHYLDFERPIADLESKIEELSRLSETAGPGAFDTEIQALRDRAQELRKEAYANLDAWQKTMVARHPQRPHLRDYVAGLIDEFVELRGDRKFADDQAIVGGLGRFRGQPVVVMGHEKGHDTTTRLKHNFGMARPEGYRKAVRLMDMAERFNLPVITFVDTAGAYPGLGAEERGQAEAIARSTERCLTLGVPMVATIVGEGGSGGAIALAGANRVLILEHSIYSVISPEGAASILWRDGARAKDAATQMRITAQDLIKLGIVDRIVEEPAGGAHSDTEAAIQAVGDAVEDELKAMAAMSPAELKKQRSDRFYAIGREGHHHHHH” the “soluble on expression in E. coli” value was “soluble”. For “MSLAANMYRVGDYVYFENSSSNPYLVRRIEELNKTANGNVEAKVVCLFRRRDISSSLNSLADSNAREFEEESKQPGVSEQQRHQLKHRELFLSRQFESLPATHIRGKCSVTLLNETDILSQYLEKEDCFFYSLVFDPVQKTLLADQGEIRVGCKYQAEIPDRLVEGESDNRNQQKMEMKVWDPDNPLTDRQIDQFLVVARAVGTFARALDCSSSIRQPSLHMSAAAASRDITLFHAMDTLQRNGYDLAKAMSTEGHHHHHH”, the “soluble on expression in E. coli” value was “not soluble”. With “MSLAATALLEAGLARVLFYPTLLYTLFRGKVPGRAHRDWYHRIDPTVLLGALPLRSLTRQLVQDENVRGVITMNEEYETRFLCNSSQEWKRLGVEQLRLSTVDMTGIPTLDNLQKGVQFALKYQSLGQCVYVHCKAGRSRSATMVAAYLIQVHKWSPEEAVRAIAKIRSYIHIRPGQLDVLKEFHKQITARATKDGTFVISKTEGHHHHHH” the “soluble on expression in E. coli” value was “soluble”. With “MSLADFLRHRREALRPEDVGLSPGARRRARGLRREEVAALALMSTDYYTRLEQRRGPQPSERMLDSLARALRLTRAERDYLYRVAGHNAPASLSDPSPVAPALLRVLDRLDDTPALILTELGETLVQNRMAVALFGDASRHTGLARSAVYRWFTDPSERSVYPESDWGRQSRAQVANLRAAYGMRGARSHAGALVRILQQSNEEFAELWERHEVAQRFEDHKTLIHPEVGAIEVDCQALFTEDQSQTLLVLTAPPRTESHEKLQLLAVLGLHRFTEAEDQVREGHHHHHH” the “soluble on expression in E. coli” value was “not soluble”. In the case of “MSLADIGSDHAYLPCYAVLNHKASGAIAGEITDGPFLSAKRQVEKSGLNSHISVRQGDGLEVIKKGEADAITIAGMGGALIAHILEAGKDKLTGKERLILQPNIHAVHIREWLYKERYALIDEVILEEDGKCYEVLVAEAGDRDAAYDGISLSAGMLVGPFLAKEKNAVFLKKWTQELQHTQSIYEQISQAADTEQNKQKLKELADRMELLKEVIDHGEGHHHHHH”, the “soluble on expression in E. coli” value is reported as “soluble”. In the case of “MSLADIPYGTDYPDAPWIDRDGHVLIDDGGKPTQVHRGQARIAYRLAERYQDKLLHVAGIGWHSWDGRRWAADDRGEAKRAVLAELRQALSDSLNDKELRADVRKCESASGVAGVLDLAAALVPFAATVADLDSDPHLLNVANGTLDLHTLKLRPHAPADRITKICRGAYQSDTESPLWQAFLTRVLPDEGVRGFVQRLAGVGLLGTVREHVLAILIGVGANGKSVFDKAIRYALGDYACTAEPDLFMHRENAHPTGEMDLRGVRWVAVSESEKDRRLAESTIKRLTGGDTIRARKMRQDFVEFTPSHTPLLITNHLPRVPGDDTAIWRRIRVVPFEVVIPADEQDRELDARLQLEADSILSWAVAGWSDYQRIGLSQPDAVLAATSNYREDSDTIKRFIDDECVTSSPVLKATTTHLFEAWQRWRVQEGVPEISRKAFGQSLDTHGYPVTEGHHHHHH”, the “soluble on expression in E. coli” value is reported as “not soluble”. With “MSLAEASTVETEFAARVQEFYHDQSDPIQLVVAFKALCAVKALLAAANLEEHGAKSSYFQEEFENWDLETKLWHLVEVLYLYRLAENEEVIAENQYSSISVLQENVLRQNPKLKELLIILGWLQTNSKGVDVPGSLSNTSKWSNTRQALANKDLNVLTTHGHTGETDTKLQNIDPDAPIRQACPVMAEDDLRDSQVFRTIYQLILSGQLQEAIELASSTGNHTLALILLGGTQDFIDPVLDKDFCETTMTDLIVPNKPSGAKHKLLWKQAVFKLSHQLGINKYERLIYDYLSGGDISGGLEVVGDSWENLLIIYLNKICLHVLLNALNSNESTTSIPAPPAESIDQVLNLISKGSNGAAQQSKHPLRIVMGSVMISEIGALISGVLKSLNNNFTTQKVWEEDYLVRVMAHLGLFAHAVGSQVSANDLTQLLTLYVQRLSARGFTDLVPLYLSFIPDDSDAREYYSKFLSSITDPSERTKQLQLVRKLGIDSNGDEERMANVLRRTVERVMADTEAEGHHHHHH” the “soluble on expression in E. coli” value was “soluble”. For “MSLAEQIEFDQAHLTLQEITEALDNGRFVHVRRQLQDMEPEDIAHLLEASPRKAREVLWQLTDPEDYGEILDELNEDVKDALVSKMAPEKLAEATEGMDIDDVAYVLRSLPDDVSREVLSQMDAADRMRVETALSYPEDTAGGLMNTDVITIRADVDVDVVLRYLRMKGELPEATDALYVIDDESKLIGHLSLVTLLTTQPDVPVSEVMDDADEAIKVDMKDSDIANLFERRNWVSAPVVDENQHLVGRITIDDVVDIIREDAEHSMMSMAGMDDDEDTFAPEGHHHHHH”, the “soluble on expression in E. coli” value was “soluble”. For “MSLAEVSDLAKAIRMEKNLVKEYRDTIGGYFRRFHPEHFVLSRDEFAVEGRKITIESVLAYAFLRADLDFVSAQARKVDPEDMKGSDDAPVNNDEVFGHPSTPSGHGIGGPARFKGGSTASVALISTPTPAPFWHPAAQSTLLCAHVGDSRILLCDTATGLAQPLTSDHHPSSPTESRRLRRYAPAGSMVSGDSFGEERIAGLANSRAFGDMKSKRIGVSAEPELTRVEMGPAQYSFLVLMTDGISGTLSDQEIVDVVKEARTPEDGARNIVKYATEVSNDGDNATCQVVRLGGWERRSEGEGHHHHHH”, the “soluble on expression in E. coli” value was “not soluble”. In the case of “MSLAGILGFPVAPFNTQGTLEEEALFQNIEFLLNEGLEAIFIACGSGEFQSLSQKEYEQMVEVAVSAAGGKVPVYTGVGGNLSTALDWAQLSEKKGADGYLILPPYLVHGEQEGLYQYAKTIIESTDLNAILYQRDNAVLSVEQIKRLTECEQLVGVKDGVGNMDLNINLVYTIGDRLGWLNGMPMAEVTMPAYLPIGFHSYSSAISNYIPHISRMFYDALKNGNDELVKELYRHVILPINDIRKQRKGYAVSLIKAGMEIMGLNVRNTARPPVGPVEKDHYQQLEAILKQPADRFPKKEGHHHHHH”, the “soluble on expression in E. coli” value is reported as “not soluble”. For “MSLAKALSLMLAQLNLTVGAIEDNCDKVLAAAAEADRQGADLLVCSELALTGYPPEDLLLRVDLMIRVEAALARLAAWQGACAILVGHPWRDGEALYNAASLYEQGKLVARYFKQDLPNYGVFDEKRYFTAATETCVVPFRGHQLGLLICEDLWQPGPALAAKAAGAELLLTINASPYDQEKPWIRRELMAERCDQTGLPLVYLNQVCGQDELIFDGCSKVFNSQGELTHKLAPFAEELALVRFADGQPVKEREPAAPLEPLAETYQALVLAVRDYVTKNGFHGAVLGLSGGIDSALTLAIAADAIGADKVQAVMMPFRYTAQMSVEDAKEQAERMGVEFNIISIEPMFEGFMAQLAPLFEGTARDTTEENLQARCRGVLLMALSNKRRCIVLTTGNKSEMAVGYATLYGDMAGGFDVLKDVPKTLVFKLCEYRNSVDYVIPQRVIDRPPSAELAPDQVDQDSLPPYDILDAILKRYVEEDASVADMVAEGFEEAVVRKVIRLVDLNEYKRRQAAVGPRITARNFGKDRRYPITSGFGKQNWEGHHHHHH”, the “soluble on expression in E. coli” value was “soluble”. In the case of “MSLAMLMLLAACSERSADWSLYNVKGHLPDLKFSLPGAHGKTVSSDDLKGKTVLLFFGYASCPDVCPTTMAQLTAVLQQLGEQARDVRILFVSVDPHRDTPDILQAYVNAFNNNAIGVTGNEKQIADLARRYRLAYQIEKPKPGDDADIYDVTHSRGVYIFDNQGKARLLASDTDTIDTMVKDLRQLIAQTQEGHHHHHH”, the “soluble on expression in E. coli” value is reported as “soluble”. In the case of “MSLAPFVAKDIRVDGVQGDLEQQIRASLPVRAGQRVTDNDVANIVRSLFVSGRFDDVKAHQEGDVLVVSVVAKSIISDVKIKGNSVIPTEALKQNLDANGFKVGDVLIREKLNEFAKSVKEHYASVGRYNATVEPIVNTLPNNRAEILIQINEDDKAKLASLTFKGNESVSSSTLQEQMELQPDSWWKLWGNKFEGAQFEKDLQSIRDYYLNNGYAKAQITKTDVQLNDEKTKVNVTIDVNEGLQYDLRSARIIGNLGGMSAELEPLLSALHLNDTFRRSDIADVENAIKAKLGERGYGSATVNSVPDFDDANKTLAITLVVDAGRRLTVRQLRFEGNTVSADSTLRQEMRQQEGTWYNSQLVELGKIRLDRTGFFETVENRIDPINGSNDEVDVVYKVKERNTGSINFGIGYGTESGISYQASVKQDNFLGTGAAVSIAGTKNDYGTSVNLGYTEPYFTKDGVSLGGNVFFENYDNSKSDTSSNYKRTTYGSNVTLGFPVNENNSYYVGLGHTYNKISNFALEYNRNLYIQSMKFKGNGIKTNDFDFSFGWNYNSLNRGYFPTKGVKASLGGRVTIPGSDNKYYKLSADVQGFYPLDRDHLWVVSAKASAGYANGFGNKRLPFYQTYTAGGIGSLRGFAYGSIGPNAIYAEYGNGSGTGTFKKISSDVIGGNAIATASAELIVPTPFVSDKSQNTVRTSLFVDAASVWNTKWKSDKNGLESDVLKRLPDYGKSSRIRASTGVGFQWQSPIGPLVFSYAKPIKKYENDDVEQFQFSIGGSFEGHHHHHH”, the “soluble on expression in E. coli” value is reported as “not soluble”. With “MSLAQTNQAEVGEPAPNFTLQAADGDEHSLADFEGQYVVLEWLNFGCPFVGKHYGSGNMQRLQDTYTDEGVVWLSIVSSAPGKQGYYPPGEMVEQKKKHDGNMTAILMDPEGEVGKTYDATVTPHMYVISPEGELLYRGGIDDKPTTDEADIEGATNYVRMALDAAMNGEEVRPKRAEPYGCTIKYASKEGHHHHHH” the “soluble on expression in E. coli” value was “soluble”. In the case of “MSLARDYRWEGVPLKAYKTDGTHFRAITRQTLLGADEDERALGHQTRYFEIAPGGYSSLERHQHTHTVMILRGQGELILGDALHRIGRHDCIYIAPQTFHQFHASGDEPLGFLCIVDRERDRPRLPDDDELARMRALPGVGPKVRTEGHHHHHH”, the “soluble on expression in E. coli” value is reported as “soluble”. In the case of “MSLARQNYHDEVEAAVNKQINVELYASYVYLSMSAHFDRDDIALRNIAKFFKEQSDEERGHATELMRIQAVRGGRVAMQNIQKPEKDEWGTVLEAFEAALALERANNASLLKLHGIAEQRNDAHLTNYIQEKYLEEQVHSINEFARHIANIKRAGPGLGEYLFDKEEFSD”, the “soluble on expression in E. coli” value is reported as “not soluble”.
